In patent US20220315908A1, “NOVEL GARDNERELLA ENDOLYSINS AND USES THEREOF” (priority 2019, published 2022):

What was measured:
[1] = system: all tested Gardnerella strains; assay: MIC and MBC microbroth dilution, stated over all tested strains; type: cell-based; conditions: first round: […]10^7 CFU/ml, 48 h anaerobic (FIG. 14)
Method: One of the main deficiencies in the treatment of BV is the high rate of recurrence in many women, which leads to repeated administration of antibiotics and concomitant destabilization of the microbiome and other side effects. The minimal inhibitory concentration (MIC) and minimal bactericidal concentration (MBC) on Gardnerella cells of the strains also used for the endolysin activity assays were then measured using the method described in Reference Example 6 and 7. […] Essentially, Gardnerella suspensions at 2.5×10^7 CFU/ml were incubated with the concentration of antibiotics as indicated and incubated for 48 h at 37° C. under anaerobic conditions. […] OD(610) was measured at the beginning and the end of the experiment. At the end of the experiment, 2 ul of each reaction mix was spotted on agar to determine the MBC.
The conditions under which MIC and MBC were measured are more rigorous than the standard.
Example 7—Activity assays of a representative (H2B10) of domain swapped endolysins on the growth in suspension of different Gardnerella strains. […] The conditions under which MBC was measured are more rigorous than the standard. […] In general, it is known, that antibiotics only insufficiently eradicate the Gardnerella biofilm, a hallmark of BV, which is one suspected reason for the reported very high recurrence rate of BV. Despite leaving residual viable biofilm, antibiotics wipe parts of the beneficial organisms of the vaginal microbiome which then opens an ecological niche for other pathogens, e.g. fungi.
Bacteria were plated from cryo stock on BD Choc Agar plates (Gardnerella) and incubated at 37° C. for 48 h under anaerobic conditions. Colonies were scraped from the plate, resuspended in Hardy Broth or NYC-III-HS-pH 5.0, and the suspension adjusted to OD (610 or 620 nm as indicated) 0.05. It has to be noted that two Tecan Microplate readers, having respectively a 610 nm or 620 nm filter, have been used interchangeably in the experiments. Although it doesn't make any difference for the experiments, the exact wavelength used is specified in each example. Antibiotics were prepared as 20× stocks for each of the required final concentrations. […] OD (610-620 as indicated) at the start of the reaction was measured, then the plate was incubated at 37° C. for 48 h under anaerobic conditions. After that, the OD (610-620 as indicated) was measured again for MIC determination, where MIC was defined as the lowest concentration of antibiotic where the OD (610-620 as indicated) was not above the level measured at the beginning of the experiment. […] After incubation, cell growth on each spot was evaluated, and the MBC defined as the lowest concentration of antibiotics where no bacteria grew on the plate.

[2] = system: G. vaginalis sensu stricto strain Gv_9; assay: Quantitative reduction in viable CFU assay in bacterial suspension; type: cell-based, Gardnerella vaginalis sensu stricto; conditions: for median surviving cells after incubation with imidazole: 5×10^7 CFU/ml start, 5 hours 37° C. anaerobic
Method: The lysis activity on the four main species of Gardnerella of 91 constructs (natural and domain-swapped endolysins) was quantitatively assessed using the method described in Reference Example 2. […]
(§1) The results are shown in FIGS. 8A to 8D together with Tables 5A to 5C. In FIGS. 8A to 8D, the logarithmic Y axis depicts the count of surviving cells. The dotted line indicates the limit of detection (LOD) given by plating of 2 ul of the reaction mix (500 CFU/ml). Each combination of the natural 10 H-domains and the natural 9 B-regions was assessed, including the natural endolysins (H1B1, H2B2, H3B3, etc.), plus H6B6. […] The activity of each construct was measured on each of the 4 main Gardnerella species G. vaginalis sensu stricto, G. leopoldii, G. piotii, and G. swidsinkii. All conditions have been measured in triplicate. The survival after 5 hours incubation at pH 5.0 under anaerobic conditions with endolysins vs. buffer was measured by quantitative plating. The values indicate the log 10 of the ratio of surviving CFU for treated vs. untreated cells. The average of the triplicate measurements is used. In tables 5A and 5B, high negative log 10 values, e.g. −6.7, −5.5, −4.8 etc. are associated with high enzymatic activity, while log 10 values closer to zero or even positive log 10 values are associated with low or no enzymatic activity. […] Inversely, a reduction value of −3.7 means a 10^3.7-fold (=5012-fold) reduction of viable CFU in treated sample vs. untreated control.
(§2) Gardnerella cells were recovered from cryo stock by plating on Chocolate Agar plates (Beckton Dickinson) and incubating for 48 h at 37° C. under anaerobic conditions. For Lactobacilli, BD Schaedler/5% sheep blood agar plates were used instead. Colonies were scraped from the plate, resuspended in Hardy Broth or NYC-III-HS-5.0 at the pH as indicated, and the suspension adjusted to OD (610 or 620 nm as indicated) 0.1. It has to be noted that two Tecan Microplate readers, having respectively a 610 nm or 620 nm filter, have been used interchangeably in the experiments. Although it doesn't make any difference for the experiments, the exact wavelength used is specified in each example. If not stated otherwise, 90 μl cell suspension was mixed with 10 μl endolysin solution, for the different species/endolysin combinations, in 384-well plates. OD(610-620 nm as indicated) was measured at the beginning of the reaction and at the end, either as two measurement points or as a continuous kinetic in a Tecan F200 Microplate reader. The reactions were incubated for 5 hours (or otherwise the time indicated) at 37° C. under anaerobic, micro-aerophilic or aerobic conditions as indicated. Anaerobic conditions intend that oxygen was fully depleted from the container in which the bacteria are incubated (Sigma-Aldrich anaerobic jar or sealable lunch box) with an anaerobic sachet, and the lack of oxygen was confirmed with an anaerobic indicator inside the container. Where micro-aerophilic conditions are indicated, the candle-in-a-jar method was used (tea candle lit in an appropriate sealable container, which reduces oxygen levels until the flame dies out). Then each well was diluted in 5 steps (10^−1 to 10^−5) using 96-U-well bottom plates, and 2 μl of each dilution of each reaction mix are plated on BD Chocolate agar plates or BD Schaedler/5% sheep blood agar plates for Gardnerella and Lactobacilli, respectively, for detecting and quantifying surviving CFU. Detection plates were incubated at 37° C. for 48 hours under anaerobic conditions.

G. piotii strain Gv_17 = assay: as above; type: cell-based, Gardnerella piotii; conditions: 5 hours, pH 5.0, anaerobic, 10 ul endolysin (0.2 mg/ml where possible) + 90 ul 5e7 CFU/ml, average of triplicate
Method: (§3) The lysis activity on the four main species of Gardnerella of 91 constructs (natural and domain-swapped endolysins) was quantitatively assessed using the method described in Reference Example 2. Briefly, 90 ul 5e7 CFU/ml of the indicated strain were incubated for 5 hours at pH 5.0 under anaerobic conditions with 10 ul endolysin (concentration adjusted to 0.2 mg/ml where possible, see Table 4).
as §1, §2

[3] = system: G. leopoldii strain Gv_11; assay: as above; type: cell-based, Gardnerella leopoldii; conditions: 5 hours, pH 5.0, anaerobic, 10 ul endolysin (0.2 mg/ml where possible) + 90 ul 5e7 CFU/ml, average of triplicate
Method: as §3, §1, §2

[4] = system: G. swidsinskii strain Gv_23; assay: as above; type: cell-based, Gardnerella swidsinskii; conditions: 5 hours, pH 5.0, anaerobic, 10 ul endolysin (0.2 mg/ml where possible) + 90 ul 5e7 CFU/ml, average of triplicate
Method: as §3, §1, §2

[5] = system: four Gardnerella strains (Gv_9, Gv_11, Gv_17, Gv_23); assay: CFU reduction averaged across the four Gardnerella strains, with activity ranks; type: cell-based
Method: as §3, §1
as §2, with “out).” for “out). Then each well was diluted in 5 steps (10^−1 to 10^−5) using 96-U-well bottom plates, and 2 μl of each dilution of each reaction mix are plated on BD Chocolate agar plates or BD Schaedler/5% sheep blood agar plates for Gardnerella and Lactobacilli, respectively, for detecting and quantifying surviving CFU. Detection plates were incubated at 37° C. for 48 hours under anaerobic conditions.”

Molecule: CCC[C@@H]1C[C@@H](C(=O)N[C@@H]([C@H]2O[C@H](SC)[C@H](O)[C@@H](O)[C@H]2O)[C@H](C)Cl)N(C)C1 [Clindamycin]
- MIC over all Gardnerella strains [1]: > 8 µg/mL

Molecule: c1c[nH]cn1 [imidazole]
- median surviving cells after incubation with imidazole ([2]; pH 6.0): 1×10^6 CFU/ml
- median surviving cells after incubation with imidazole ([2]; pH 7.0): 3×10^4 CFU/ml

B1: H6B6: natural Gardnerella prophage endolysin from strain 1400E, truncated at the C-terminus (protein)
chain: MSKKGIDVSVWQGDIDFNAVKASGVEFVIIRAGYGIGCKDKWFEQNYRKAKTCGLDVGAYWYSYANSGFEAAEEAQSCVNMLSGKSFEYPVYFDLEEKSQLNRGRAFCDSLITSFCSKLESCGYYAGFYTSLSTANNLVSAHVRNRYALWIAQWNTHCDYQGSYGLWQYSSSGSVPGVAGRVDMDYAYKNYPSIIKNAGLNGCKNGGSNQAARTSSIDDVAREVINGAWGNGNERKQRLTQAGYDYASVAK
modifications: EL6_strain_1400E_frameshift
notes: natural Gardnerella prophage endolysin from strain 1400E, truncated at the C-terminus
- log 10 of the ratio of surviving CFU for treated vs. untreated cells (G. piotii strain Gv_17): −0.2 log 10
- log 10 of the ratio of surviving CFU for treated vs. untreated cells [3]: 0.2 log 10
- log 10 of the ratio of surviving CFU for treated vs. untreated cells [4]: −0.1 log 10
- killing activity against Gardnerella, in words ([5]; across the Gardnerella strains tested): complete inactivity
- average of the log 10 activities of each construct across the four Gardnerella strains ([5]; pH 5.0, 5 hours, anaerobic): 0.0 log 10
- activity rank of all endolysins ([5]; rank 1-91, based on the data of Table 5B): 86
- log 10 of the ratio of surviving CFU for treated vs. untreated cells ([2]; Gv_9, 5 hours, pH 5.0, anaerobic, 10 ul endolysin (0.2 mg/ml where possible) + 90 ul 5e7 CFU/ml, average of triplicate): 0.1 log 10
